# Values quoted from earlier work, collected in PMC12493192.
# Where two headings read alike, the source gives them in different places.
# Key:
# GC-C (Homo sapiens) [1] = biological target: GC-C (Homo sapiens) (UniProt P25092)
# GC-C (Homo sapiens) [2] = biological target: GC-C (Homo sapiens) (UniProt P25092); remark: listed apart in the source
# Sequence of UniProt P25092 (P25092 24-430): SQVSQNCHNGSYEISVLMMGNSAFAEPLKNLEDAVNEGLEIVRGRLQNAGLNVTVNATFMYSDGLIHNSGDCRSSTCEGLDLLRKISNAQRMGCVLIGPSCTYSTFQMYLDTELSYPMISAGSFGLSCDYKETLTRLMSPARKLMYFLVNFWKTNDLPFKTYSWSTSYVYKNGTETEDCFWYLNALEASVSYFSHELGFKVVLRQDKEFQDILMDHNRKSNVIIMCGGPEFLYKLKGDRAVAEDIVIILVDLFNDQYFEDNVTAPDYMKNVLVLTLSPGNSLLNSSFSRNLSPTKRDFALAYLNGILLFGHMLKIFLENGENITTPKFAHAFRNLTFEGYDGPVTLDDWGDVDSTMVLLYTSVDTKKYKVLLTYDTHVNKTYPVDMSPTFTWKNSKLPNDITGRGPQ
Kd (GC-C (Homo sapiens) [1]),Kd (GC-C (Homo sapiens) [2]),Substance
10 nM,–,guanylin (from UniProt Q02747)
–,1 nM,uroguanylin (from UniProt Q16661)
